*1 amine or outer side, *2 acyl side, *3 side chain or, on linkers, in order; H or OH if unused. Bridges are numbered along the chain shown (N, C = ends). Primed or numbered codes have the meaning given here. Where no end group is shown, it is not given here. Side-chain parts run from the residue outwards. [ ]: non-standard residue; d: D form. The star is where a group is joined. C20 diacid = O=C(O)CCCCCCCCCCCCCCCCCCC(=O)*; γGlu = O=C(O)[C@H](CCC(=O)[*:2])N[*:1]; βAsp = O=C(O)[C@H](CC(=O)[*:2])N[*:1]; Aad = N[C@@H](CCCC(=O)O)C(=O)O; Orn = NCCC[C@H](N)C(=O)O; Aze = O=C(O)[C@@H]1CCN1; Dab = NCC[C@H](N)C(=O)O; Inp′ = not defined here; Pip′ = not defined here; Trx′ = not defined here; Dap = NC[C@H](N)C(=O)O; AEEA = NCCOCCOCC(=O)O
T1: human amylin receptor (AMY3) on CHO-K1/Ga15/AMY3 cells (human, UniProt P30988 25-474; O60896 24-148)
T1 sequence (looked up) 1: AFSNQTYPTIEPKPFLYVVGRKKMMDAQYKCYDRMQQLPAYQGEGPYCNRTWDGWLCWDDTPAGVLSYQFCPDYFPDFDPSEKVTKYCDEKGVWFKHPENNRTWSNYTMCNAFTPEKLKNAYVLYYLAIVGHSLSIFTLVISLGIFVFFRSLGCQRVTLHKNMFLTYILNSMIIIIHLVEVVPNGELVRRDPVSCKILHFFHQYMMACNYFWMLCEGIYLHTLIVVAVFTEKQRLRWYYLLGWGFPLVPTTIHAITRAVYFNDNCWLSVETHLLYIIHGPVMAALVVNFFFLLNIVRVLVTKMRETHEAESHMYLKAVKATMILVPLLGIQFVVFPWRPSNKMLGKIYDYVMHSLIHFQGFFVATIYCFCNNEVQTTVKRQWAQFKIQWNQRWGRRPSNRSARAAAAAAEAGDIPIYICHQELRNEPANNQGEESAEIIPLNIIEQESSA
T1 sequence (looked up) 2: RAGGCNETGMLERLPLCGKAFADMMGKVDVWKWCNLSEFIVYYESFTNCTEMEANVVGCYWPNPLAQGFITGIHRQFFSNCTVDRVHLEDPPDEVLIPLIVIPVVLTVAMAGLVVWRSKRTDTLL


Target: T1, human amylin receptor (AMY3) on …
Assay: cell-based or functional assay

Row | Binder | EC50, CRE-luciferase assay [nM]
1 | {C20 diacid-Trx′-AEEA-AEEA}-KCNTATCATQRLADFLRHSSNNLKPILPPTNVGSNTP-NH2 (disulfide 2-7 (inferred); reading uncertain; also: printed as N-terminal: 2*AEEA + Trx + C20 diacid; C-terminal NH2) [PD189] | 0.029
2 | RCNTATCATQRLADFLRHSSNNLK([γGlu-C20 diacid])PILPPTNVGSNTP-NH2 (disulfide 2-7 (inferred)) [PD048] | 0.047
3 | RCNTATCATQRLAEFL[Orn]HSSNNLK([γGlu-C20 diacid])PILPPTNVGSNTP-NH2 (disulfide 2-7 (inferred)) [PD046] | 1.68
4 | RCNTATCATQRLADFLRHSSNNLK([γGlu-C20 diacid])PILPPTNVGSNT[Aze]-NH2 (disulfide 2-7 (inferred)) [PD060] | 0.246
5 | {C20 diacid-AEEA-AEEA-γGlu}-KCNTATCATQRLADFLRHSSNNLKPILPPTNVGSNTP-NH2 (disulfide 2-7 (inferred)) [PD188] | 0.025
6 | RCNTATCATQRLAEFLRHSSNNK([AEEA-AEEA-γGlu-C20 diacid])GPILPPTNVGSNTP-NH2 (disulfide 2-7 (inferred)) [PD003] | 0.14
7 | RCNTATCATQRLA[Dab]FLRHSSNNLK([γGlu-C20 diacid])PILPPTNVGSNTP-NH2 (disulfide 2-7 (inferred)) [PD044] | 2.62
8 | RCNTATCATQRLA[Aad]FLRHSSNNLK([γGlu-C20 diacid])PILPPTNVGSNTP-NH2 (disulfide 2-7 (inferred)) [PD043] | 1.13
9 | {C20 diacid-γGlu}-RCNTATCATQRLADFLRHSSNNLRPILPPTNVGSNTP-NH2 (disulfide 2-7 (inferred)) [PD197] | 0.025
10 | {C20 diacid}-D[AEEA][AEEA]KCNTATCATQRLADFLRHSSNNLKPILPPTNVGSNTP-NH2 (disulfide 5-10 (inferred)) [PD193] | 0.074
11 | RCNTATCATQRLAEFLRHSSNNLK([γGlu-C20 diacid])PILPPTNVGSNT[Pip′]-NH2 (disulfide 2-7 (inferred)) [PD057] | 0.793
12 | RCNTATCATQRLAEFLRHSSNK([AEEA-AEEA-γGlu-C20 diacid])LGPILPPTNVGSNTP-NH2 (disulfide 2-7 (inferred)) [PD002] | 0.119
13 | RCNTATCATQRLAEFLRHSSNNLK([γGlu-C20 diacid])PILPPTNVGSNT[Aze]-NH2 (disulfide 2-7 (inferred)) [PD059] | 0.939
14 | {C20 diacid-AEEA-AEEA-Trx′}-KCNTATCATQRLADFLRHSSNNLKPILPPTNVGSNTP-NH2 (disulfide 2-7 (inferred); reading uncertain; also: printed as N-terminal: Trx + 2*AEEA + C20 diacid; C-terminal NH2) [PD190] | 0.017
15 | RCNTATCATQRLAEFLRHSSNNLK([γGlu-C20 diacid])PILPPTNVGSNT[cis‑Hyp]-NH2 (disulfide 2-7 (inferred)) [PD055] | 0.909
16 | RCNTATCATQRLAEFLRHSSNNLK([γGlu-C20 diacid])PILPPTNVGSNT[3‑Am‑Pro]-NH2 (disulfide 2-7 (inferred)) [PD061] | 0.815

Row | Binder | EC50, CRE-luciferase assay [nM]
17 | {C20 diacid-γGlu}-KGGGGRCNTATCATQRLADFLRHSSNNLRPILPPTNVGSNTP-NH2 (disulfide 7-12 (inferred)) [PD198] | 0.029
18 | RCNTATCATQRLAEFLRHSSNNLK([γGlu-C20 diacid])PILPPTNVGSNTP-NH2 (disulfide 2-7 (inferred)) [PD047] | 0.073
19 | {C20 diacid-AEEA-AEEA}-KCNTATCATQRLADFLRHSSNNLKPILPPTNVGSNTX-NH2 (disulfide 2-7 (inferred); not fully specified (residue 37); printed as KCNTATCATQRLADFLRHSSNNLKPILPPTNVGSNT-trans-Hyp-NH2) [PD187] | 0.016
20 | CNTATCATQRLAEFLRHSSNNLK([γGlu-C20 diacid])PILPPTNVGSNTX-NH2 (disulfide 1-6 (inferred); not fully specified (residue 36); printed as CNTATCATQRLAEFLRHSSNNLKPILPPTNVGSNT-trans-Hyp-NH2) [PD053] | 0.075
21 | CNTATCATQRLADFLRHSSNNLK([γGlu-C20 diacid])PILPPTNVGSNTX-NH2 (disulfide 1-6 (inferred); not fully specified (residue 36); printed as CNTATCATQRLADFLRHSSNNLKPILPPTNVGSNT-trans-Hyp-NH2) [PD054] | 0.049
22 | RCNTATCATQRLADFLRHSSNNLK([γGlu-C20 diacid])PILPPTNVGSNT[cis‑Hyp]-NH2 (disulfide 2-7 (inferred)) [PD056] | 0.586
23 | {C20 diacid-AEEA-AEEA-Inp′}-KCNTATCATQRLADFLRHSSNNLKPILPPTNVGSNTP-NH2 (disulfide 2-7 (inferred)) [PD192] | 0.087
24 | RCNTATCATQRLA[Dap]FLRHSSNNLK([γGlu-C20 diacid])PILPPTNVGSNTP-NH2 (disulfide 2-7 (inferred)) [PD045] | 0.364
25 | CNTATCATQRLAEFLRHSSNNLK([γGlu-C20 diacid])PILPPTNVGSNTP-NH2 (disulfide 1-6 (inferred)) [PD049] | 0.215
26 | {C20 diacid-βAsp-AEEA-AEEA}-KCNTATCATQRLADFLRHSSNNLKPILPPTNVGSNTP-NH2 (disulfide 2-7 (inferred)) [PD195] | 0.025
27 | CNTATCATQRLADFLRHSSNNLK([γGlu-C20 diacid])PILPPTNVGSNTP-NH2 (disulfide 1-6 (inferred)) [PD050] | 0.098
28 | {C20 diacid-βAsp-AEEA-AEEA}-KCNTATCATQRLADFLRHSSNNLKPILPPTNVGSNTP-NH2 (disulfide 2-7 (inferred)) [PD196] | 0.064
29 | RCNTATCATQRLADFLRHSSNNLK([γGlu-C20 diacid])PILPPTNVGSNT[3‑Am‑Pro]-NH2 (disulfide 2-7 (inferred)) [PD062] | 0.374
30 | {C20 diacid-Inp′-AEEA-AEEA}-KCNTATCATQRLADFLRHSSNNLKPILPPTNVGSNTP-NH2 (disulfide 2-7 (inferred)) [PD191] | 0.061
31 | {C20 diacid-AEEA-AEEA}-DKCNTATCATQRLADFLRHSSNNLKPILPPTNVGSNTP-NH2 (disulfide 3-8 (inferred)) [PD194] | 0.074
32 | RCNTATCATQRLADFLRHSSNNLK([γGlu-C20 diacid])PILPPTNVGSNT[Pip′]-NH2 (disulfide 2-7 (inferred)) [PD058] | 0.319

Reference: US20260115256A1 (HANGZHOU SCIWIND BIOSCIENCES, published 2026)
